These are literature values, as cited in paper PMC8232796.

Read-outs that look alike come from different tables or passages of the source.

In series [1] the target is Ubiquitin (Homo sapiens) (UniProt P0CG48).
Series [2] has as its target HIV-1 Gag p6 peptide p6 (Human immunodeficiency virus 1) (UniProt O93182).
The target in series [3] is Ubiquitin (Homo sapiens) (UniProt P0CG48). This is another data set of the same source.
Series [4] has the same target. This is another data set of the same source.

Chain of Tsg101 UEV UEV (Q99816 1-148): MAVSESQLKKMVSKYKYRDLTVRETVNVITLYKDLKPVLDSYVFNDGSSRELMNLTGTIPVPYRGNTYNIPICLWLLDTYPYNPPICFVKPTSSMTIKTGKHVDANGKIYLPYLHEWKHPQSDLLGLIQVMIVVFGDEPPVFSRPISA
Chain of UbcH5 (P51668 whole entry): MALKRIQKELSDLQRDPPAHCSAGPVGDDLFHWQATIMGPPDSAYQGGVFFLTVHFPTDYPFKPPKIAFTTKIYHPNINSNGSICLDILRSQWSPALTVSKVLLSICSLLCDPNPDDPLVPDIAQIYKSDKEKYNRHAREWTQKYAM
Chain of hMms2 UEV (Q15819 2-145): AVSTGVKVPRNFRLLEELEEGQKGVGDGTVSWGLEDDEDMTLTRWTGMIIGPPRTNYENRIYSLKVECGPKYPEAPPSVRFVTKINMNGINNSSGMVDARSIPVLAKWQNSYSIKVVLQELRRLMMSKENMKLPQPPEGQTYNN

Broadly, the Kd is the free concentration of one partner at which half of the binding sites on the other are occupied at equilibrium, for simple one-to-one binding. In the case of Tsg101 UEV UEV (from UniProt Q99816), the values for the Kd (with Ubiquitin (Homo sapiens) [1]; in series [2]) were 500 µM and 27 µM, respectively.
As to UbcH5 (from UniProt P51668), the dissociation constant (Kd) in the series with Ubiquitin (Homo sapiens) [3] is 300 µM.
Take hMms2 UEV (from UniProt Q15819): the Kd with Ubiquitin (Homo sapiens) [4] is 100 µM.
